In PMC8503523, “Lilium regale Wilson WRKY2 Regulates Chitinase Gene Expression During the Response to the Root Rot Pathogen Fusarium oxysporum”:

Legend:
[1] = target: T1, LrWRKY2 (Lilium regale Wilson, UniProt A0A894THB0 1-343); test: EMSA; 0.5 ug protein in 20 uL with 7 uL binding buffer (as printed: 100 mM Tris, 500 mM KCl, 10 mM DTT, 50% glycerol, 100 mM MgCl2, 1% NP-40, 1 M KCl, 200 mM EDTA, 1); details: protein: recombinant, tags: His (pET-32a fusion)
T1 sequence: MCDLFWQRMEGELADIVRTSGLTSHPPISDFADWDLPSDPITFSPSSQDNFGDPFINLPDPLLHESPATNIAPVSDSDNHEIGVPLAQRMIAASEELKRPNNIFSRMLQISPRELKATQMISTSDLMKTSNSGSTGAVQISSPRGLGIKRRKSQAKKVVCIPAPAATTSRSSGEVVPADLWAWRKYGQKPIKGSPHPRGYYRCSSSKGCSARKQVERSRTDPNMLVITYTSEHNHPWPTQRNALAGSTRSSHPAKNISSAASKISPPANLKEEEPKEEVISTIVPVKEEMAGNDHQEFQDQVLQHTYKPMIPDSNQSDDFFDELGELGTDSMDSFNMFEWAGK

[2] = target: T1, LrWRKY2; test: competition EMSA; 50-fold excess over biotin-labeled N1; shift less intense; 0.5 ug protein in 20 uL with 7 uL binding buffer (as printed: 100 mM Tris, 500 mM KCl, 10 mM DTT, 50% glycerol, 100 mM MgCl2, 1% NP-40, 1 M KCl, 200 mM EDTA, 1); details: protein: recombinant; tags: His (pET-32a fusion); (only one strand printed; duplex implied by 50-bp)

B1: LrCHI2 promoter W-box probe (dsDNA)
DNA 1: GGCAAACTTTTAGGCCAAGAGATTGACTAGAACCCTCACAATCTCTATAT
DNA 2: ATATAGAGATTGTGAGGGTTCTAGTCAATCTCTTGGCCTAAAAGTTTGCC
B1: binds ([1]; (only one strand printed; duplex implied by 50-bp)).

B2: LrCHI2 promoter mutant W-box probe (dsDNA)
DNA 1: GGCAAACTTTTAGGCCAAGAGATTACCTAGAACCCTCACAATCTCTATAT
DNA 2: ATATAGAGATTGTGAGGGTTCTAGGTAATCTCTTGGCCTAAAAGTTTGCC
B2: no binding [1].

B3: LrCHI2 promoter W-box competitor, unlabeled (dsDNA)
DNA 1: GGCAAACTTTTAGGCCAAGAGATTGACTAGAACCCTCACAATCTCTATAT
DNA 2: ATATAGAGATTGTGAGGGTTCTAGTCAATCTCTTGGCCTAAAAGTTTGCC
B3: binds [2].
